Measurements taken from patent publication US20260151494A1 (ARO BIOTHERAPEUTICS, published 2026).
Residue numbers refer to the chain shown, from its start. Each block holds one binder with its values, some of them ahead of it.

Legend:
[1] = target: T1, human CD71 extracellular domain (human, UniProt P02786 89-760); test: primary ELISA, luminescence; further: test concentration or dose not given here
T1 construct: also called hCD71; human CD71-ECD

[2] = target: T2, apical domain of cynomolgus CD71 (cynomolgus, UniProt A0A2K5X958 189-383); test: primary ELISA, luminescence; further: test concentration or dose not given here
T2 construct: domain: apical domain; also called Cyno apical domain
T2 sequence (A0A2K5X958 entry or part of it): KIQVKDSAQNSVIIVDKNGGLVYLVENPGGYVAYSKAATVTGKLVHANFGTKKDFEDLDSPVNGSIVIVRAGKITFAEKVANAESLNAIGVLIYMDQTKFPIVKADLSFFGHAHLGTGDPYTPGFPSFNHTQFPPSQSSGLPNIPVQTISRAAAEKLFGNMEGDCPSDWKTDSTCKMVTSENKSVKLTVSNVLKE

[3] = target: T1, human CD71 extracellular domain; test: primary ELISA, ratio of signal to HSA control
[4] = target: T2, apical domain of cynomolgus CD71; test: primary ELISA, ratio of signal to HSA control

T1 sequence (P02786 89-760): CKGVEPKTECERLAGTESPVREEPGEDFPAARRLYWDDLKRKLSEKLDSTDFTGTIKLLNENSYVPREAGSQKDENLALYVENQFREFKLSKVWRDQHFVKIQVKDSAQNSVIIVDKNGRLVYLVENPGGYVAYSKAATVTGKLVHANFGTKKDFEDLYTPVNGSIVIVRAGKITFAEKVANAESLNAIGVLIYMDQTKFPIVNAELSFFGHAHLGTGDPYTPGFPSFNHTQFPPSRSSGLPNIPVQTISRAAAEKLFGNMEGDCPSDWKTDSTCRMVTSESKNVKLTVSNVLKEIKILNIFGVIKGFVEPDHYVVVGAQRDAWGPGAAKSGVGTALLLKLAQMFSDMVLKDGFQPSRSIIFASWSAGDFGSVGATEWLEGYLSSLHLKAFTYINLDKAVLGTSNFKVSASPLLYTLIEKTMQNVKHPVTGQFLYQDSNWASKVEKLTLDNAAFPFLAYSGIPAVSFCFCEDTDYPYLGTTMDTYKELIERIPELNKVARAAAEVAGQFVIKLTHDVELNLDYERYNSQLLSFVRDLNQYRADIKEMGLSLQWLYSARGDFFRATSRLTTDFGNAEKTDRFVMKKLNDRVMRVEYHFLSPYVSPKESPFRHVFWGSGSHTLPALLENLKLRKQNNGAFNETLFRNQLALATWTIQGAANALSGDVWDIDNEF

- RLU [1]: 4.93e+06 RLU
- RLU [2]: 5.52e+06 RLU
- hCD71:HSA [3]: 56
- Cyno apical domain:HSA [4]: 63
B2: CD71-binding FN3 domain of SEQ ID NO: 231 (designed binder)
chain: MSLPAPKNLVVSRVTEDSARLSWTAPDAAFDSFFIGYLEPQPPGEAIHLFVPGSERSYDLTGLKPGTEYNVTIQGVKGGFPSEPLIANSTT

- RLU [1]: 2.62e+06 RLU
- RLU [2]: 4.23e+06 RLU
- hCD71:HSA [3]: 30
- Cyno apical domain:HSA [4]: 49
B4: CD71-binding FN3 domain of SEQ ID NO: 227 (designed binder)
chain: MSLPAPKNLVVSRVTEDSARLSWTAPDAAFDSFEIAYAELSTGEAIVLTVPGSERSYDLTGLKPGTEYYVHIGGVKGGSWSIPLSAIFTT

- RLU [1]: 2.69e+06 RLU
- RLU [2]: 4.78e+06 RLU
- hCD71:HSA [3]: 202
- Cyno apical domain:HSA [4]: 359
B7: CD71-binding FN3 domain of SEQ ID NO: 233 (designed binder)
chain: B2 chain with F50S, N70W, T72Q, Q74G, F80N, P81W, E83A, I86S, N88I, S89F

- RLU [1]: 3.1e+06 RLU
- RLU [2]: 4.79e+06 RLU
- hCD71:HSA [3]: 74
- Cyno apical domain:HSA [4]: 115
B8: CD71-binding FN3 domain of SEQ ID NO: 224 (designed binder)
chain: MSLPAPKNLVVSRVTEDSARLSWTAPDAAFDSFEIGYWENAYKGEAIVLTVPGSERSYDLTGLKPGTEYVVFIGGVKGGGWSGPLSAIFTT

- RLU [1]: 3.58e+06 RLU
- RLU [2]: 5.41e+06 RLU
- hCD71:HSA [3]: 195
- Cyno apical domain:HSA [4]: 295
B9: CD71-binding FN3 domain of SEQ ID NO: 232 (designed binder)
chain: B8 chain with G36S, N40H, A41T, Y42F, K43N, V48I, T50F, G80V, G83V

- RLU [1]: 3.1e+06 RLU
- RLU [2]: 4.33e+06 RLU
- hCD71:HSA [3]: 20
- Cyno apical domain:HSA [4]: 28
B11: CD71-binding FN3 domain of SEQ ID NO: 226 (designed binder)
chain: B8 chain with V11I, W38F, A41L, K43L, V70W, F72A, G80L, G83L

- RLU [1]: 2.54e+06 RLU
- RLU [2]: 4.73e+06 RLU
- hCD71:HSA [3]: 151
- Cyno apical domain:HSA [4]: 282
B12: CD71-binding FN3 domain of SEQ ID NO: 230 (designed binder)
chain: B8 chain with V10I, F33L, W38F, A41L, K43L, V70W, F72Q, G80N, G83A

- RLU [1]: 2.66e+06 RLU
- RLU [2]: 4.86e+06 RLU
- hCD71:HSA [3]: 133
- Cyno apical domain:HSA [4]: 242
B13: CD71-binding FN3 domain of SEQ ID NO: 228 (designed binder)
chain: B8 chain with G80V, G83K, A87V

Further lines, the binder ahead of its results:

B1: CD71-binding FN3 domain of SEQ ID NO: 222 (designed binder)
chain: B2 chain with H48T, F50Y, E83G, N88S, S89F
- RLU [1]: 5.78e+06 RLU
- RLU [2]: 6.01e+06 RLU
- hCD71:HSA [3]: 215
- Cyno apical domain:HSA [4]: 223

B3: CD71-binding FN3 domain of SEQ ID NO: 221 (designed binder)
chain: B2 chain with Q41R, F50Y, V71I, E83I, N88S, S89F
- RLU [1]: 5.75e+06 RLU
- RLU [2]: 6.08e+06 RLU
- hCD71:HSA [3]: 176
- Cyno apical domain:HSA [4]: 186

B5: CD71-binding FN3 domain of SEQ ID NO: 225 (designed binder)
chain: B8 chain with W38F, A41L, K43L, V70W, F72Q, G80N, G83A
- RLU [1]: 2.43e+06 RLU
- RLU [2]: 4.22e+06 RLU
- hCD71:HSA [3]: 191
- Cyno apical domain:HSA [4]: 331

B6: CD71-binding FN3 domain of SEQ ID NO: 220 (designed binder)
chain: B8 chain with G36A, N40Q, A41S, K43T, V70W, F72Q, G80N, G83A
- RLU [1]: 2.43e+06 RLU
- RLU [2]: 4.69e+06 RLU
- hCD71:HSA [3]: 388
- Cyno apical domain:HSA [4]: 751

B10: CD71-binding FN3 domain of SEQ ID NO: 223 (designed binder)
chain: MSLPAPKNLVVSRVTEDSARLSWTAPDAAFDSFEIAYFERTWFGEAIVLTVPGSERSYDLTGLKPGTEYWVAIGGVKGGLWSLPLSVIFTT
- RLU [1]: 2.25e+06 RLU
- RLU [2]: 4.11e+06 RLU
- hCD71:HSA [3]: 26
- Cyno apical domain:HSA [4]: 47

B14: CD71-binding FN3 domain of SEQ ID NO: 219 (designed binder)
chain: MSLPAPKNLVVSRVTEDSARLSWTAPDAAFDSFAIMYGERGNPGEAIVLTVPGSERSYDLTGLKPGTEYAVWIYGVKGGNYSYPLSAIFTT
notes: the tag is not included in the chain
- RLU [1]: 3.01e+06 RLU
- RLU [2]: 4.58e+06 RLU
- hCD71:HSA [3]: 66
- Cyno apical domain:HSA [4]: 101
